Experimental data reported in US11261230B2, “Synthetic somatostatin receptor ligands” (TEL HASHOMER MEDICAL RESEARCH INFRASTRUCTURE AND SERVICES …, priority 2014, dated 2022).
*1 amine or outer side, *2 acyl side, *3 side chain or, on linkers, in order; H or OH if unused. Where a SMILES comes first, the peptide text is derived from it. Bridges are numbered along the chain shown (N, C = ends). [ ]: non-standard residue; d: D form. The star is where a group is joined. FITC = O=C1OC2(c3ccc(O)cc3Oc3cc(O)ccc32)c2ccc(NC(=S)*)cc21; N(2-mercaptoethyl)Gly = O=C(CN(CCS[*:3])[*:1])[*:2]; GABA = NCCCC(=O)O

Columns and labels:
[1] = test system: PANC-1 tumors; experiment: In vivo biodistribution in PANC-1 xenograft mice, Maestro fluorescence imaging of harvested tissue; conditions: 1 day after administration, tissues as named in the value
Protocol: Five different pharmaceutical compositions were prepared, each by dissolving 1 mg of a different Somatostatin receptor ligand in 1 liter PBS.
Solid human-derived tumors were induced in 15 nude mice by subcutaneous injection of a suspension containing ˜5□10^5 human cancer cells (PANC-1) into the flank area of the mice.
2-3 weeks after the injection of the cancer cells, it was observed that the mice developed solid tumors with diameters of approximately 5-10 mm.
0.3 ml of each one of the five pharmaceutical compositions were systemically administered to three of the fifteen xenograft mice by injection into the tail vein using a 30 G needle.
The fifteen mice were sacrificed and from the bodies tumors, pancreas, spleen, kidney and liver were harvested.
The fluorescence of the harvested tissue was determined using the Maestro™ in vivo fluorescence imaging system (Cambridge Research & Instrumentation, Inc., Woburn, Mass., USA).

[2] = test system: BON1 tumor; experiment: In vivo bio-distribution by fluorescence imaging in mice bearing BON1 tumor; design: species or system nude mice; conditions: 10 mg/kg IV
Protocol: Pharmacokinetics and bio-distribution of some of the compounds was studied in mouse xenograft models for human cancer. Four pharmaceutical compositions according to the teachings herein, each comprising a single compound according to the teachings herein, were administered intravenously (IV) into lateral tail vein of nude mice bearing BON1 or H116 tumors. Animals were sacrificed at 1, 3, 6 and 24 hours after injection and tumor and normal tissues were excised. Tissue bio-distribution of the compounds were studied using fluorescence imaging techniques.
Experiments were started 7-10 days after the injection, when the tumor diameter was approximately 5-10 mm. […]
Whole-body fluorescence imaging, low-magnification fluorescence microscopy and cellular level fluorescence microscopy methods were used to study tissue biodistribution of the compounds. For these purposes, SZX-12 fluorescence microscope (Olympus, Japan), IX81 inverted fluorescence microscope (Olympus, Japan) equipped with appropriate filter-cubes and digital color camera (DP71, Olympus) were used. Additionally, whole-body fluorescence imaging was performed by WB imaging system (Prizmatix, Israel). Quantitative spectrally-resolved fluorescence imaging was carried out using a spectral imaging (SI) system (SD300, Applied Spectral Imaging, Migdal Ha'Emek, Israel). […]

SMILES	Intensity in healthy tissue (in words) [1]	Time of maximal fluorescence signal in all tissues after administration ([2]; spleen, pancreas and tumor, FIG. 10)	Pattern of bio-distribution, order of fluorescence in tissue samples ([2]; fluorescence microscopy, 24 hrs after administration)
C[C@@H](O)[C@@H]1NC(=O)[C@H](CCCN)NC(=O)[C@@H](Cc2c[nH]c3ccccc23)NC(=O)[C@H](Cc2c[nH]c3ccccc23)NC(=O)[C@H](Cc2ccccc2)NC(=O)[C@@H](NC(=O)[C@@H](Cc2ccccc2)NC(=O)CCCNC(=S)Nc2ccc3c(c2)C(=O)OC32c3ccc(O)cc3Oc3cc(O)ccc32)CSSCCN(CC(N)=O)C(=O)[C@H](Cc2ccccc2)NC1=O [Compound 3, FITC-GABA-D-Phe-Cys-Phe-Trp-D-Trp-Orn-Thr-Phe-GlyS2]	undetectable in spleen, kidney and liver tissue	6 h	–
C[C@@H](O)[C@@H]1NC(=O)[C@H](CCCCN)NC(=O)[C@@H](Cc2c[nH]c3ccccc23)NC(=O)[C@H](Cc2c[nH]c3ccccc23)NC(=O)[C@H](Cc2ccc(O)cc2)NC(=O)[C@@H](NC(=O)[C@@H](Cc2ccccc2)NC(=O)CCCNC(=S)Nc2ccc3c(c2)C(=O)OC32c3ccc(O)cc3Oc3cc(O)ccc32)CSSCCN(CC(N)=O)C(=O)[C@H](Cc2ccccc2)NC1=O [Compound 4, FITC-GABA-D-Phe-Cys-Tyr-Trp-D-Trp-Lys-Thr-Phe-GlyS2] ({FITC-GABA}-[dF]CYW[dW]KTF[N(2-mercaptoethyl)Gly]-NH2; disulfide 2-9)	–	–	tumor>spleen>pancreas>kidney>liver
